B1: ADI-50200 (antibody, V domains shown)
VH: EVQLLESGGDLVQPGRSLRLSCAASGFNLIDYAMHWVRQVPGKGLEWVSGISWNSRSIGYADSVKGRFTISRDNAKNSLYLQMDSLKHEDTALFYCAKGAAAGPFPYFYYAMDVWGQGTTVTVSS
VL: DIQVTQSPSSLSASVGDRVTITCRASQGISNNLAWYQQKPGIFPKLLIYAASTLQSGVPSRFSGSGSGTDFILTISSLQPEDVATYYCQKYQSAPPTFGGGTKLEIK
notes: full-length IgG
B2: ADI-42114 (antibody, V domains shown)
VH: EVQLLESGGGLVKPGGSLRLSCAASGFTFSSYSMNWVRQAPGKGLEWVSSISSSSSYIYYADSVKGRFTISRDNAKNSLYLQMNSLRAEDTAVYYCARDSWGPFDYWGQGTLVTVSS
VL: QSVLTQPPSVSAAPGQKVTISCSGSSSNIGNNYVSWYQQLPGTAPKLLIYDNNKRPSGIPDRFSGSKSGTSATLGITGLQTGDEADYYCGTWDSSLSAKVFGGGTKLTVL
notes: full-length IgG; also called Antibody Number 143
B3: ADI-42786 (antibody, V domains shown)
VH: EVQLVESGPGLVKPSGTLSLTCAVSGGSISSSYWWSWVRQSPGKGLEWIGEVYHSGSTHYNPSLKSRVTISVDKSKNQFSLKLTSVTAADTAVYYCARDGEGHYYRSGDNWFDRWGQGTLVTVSS
VL: QSVLTQPPSVSAAPGQKVTISCSGSSSNIGSNYVSWYQQFPGTAPKLLIYDNSKRPSGIPDRFSGSMSGTSATLGITGLQTGDEADYYCGTWDSSLSAVVFGGGTKVTVL
notes: full-length IgG; also called Antibody Number 15
B4: ADI-49205 (antibody, V domains shown)
VH: EVQLVESGGGVVQTGRSLRLSCAASGFTFSISGMHWVRQAPGKGLEWVALIWYDGTKKYYADSVKGRFTISRDDFKNTVYLQMNSLRADDTAVYYCARIKSDAFDLWGQGTTVTVSS
VL: QSALTQPPSASGSPGQSVTISCTGTSSDVGGFNYVSWYQQHPGRAPKLVIYEVNRRPSGVPDRFSGSKSGYTASLTVSGLQAEDEADYYCFSYAGSNNYVFGTGTKVTVL
notes: full-length IgG; also called Antibody Number 148
B5: ADI-42190 (antibody, V domains shown)
VH: QVQLVESGGGLVKPGGSLRLSCAASGFTFSDDYMSWIRQAPGKGLEWVSYISGSGRAMYYADSVQGRFTVSRDNAKNSLFLQMNNLRAEDTAVYYCAKHTGDKPLVWAPSVYGLDVWGQGTTVTVSS
VL: QSVLTQPASVSGSPGQSITISCTGTSSDIGAYNYVSWYQQHPGKAPKLMIYDVTNRPSGVSNRFSGSKSGSSASLTISGLQTEDEADYYCSSYTRRSTLVFGGGTKLTVL
notes: full-length IgG; also called Antibody Number 22
B6: ADI-45151 (antibody, V domains shown)
VH: EVQLLESGGGVVQPGKSLRLSCAASGFSFGDYGMHWVRQTPDKGLEWVAVILFDGSKKFYADSVRGRFTISRDNSKNNLYLQMSSLRPEDTAVYYCAKFPLRDGGSGEGFDYWGQGTLVTVSS
VL: DIVMTQTPLSSPVTLGQPASISCRSSQSLVHSDGNTYLSWLQQRPGQPPRFLIYKISNRFSGVPDRFSGGGAGTDFTLKISRVEAEDVGVYYCMQASQFPLTFGGGTKVEIK
notes: full-length IgG; also called Antibody Number 149
B7: ADI-49194 (antibody, V domains shown)
VH: EVQLVESGGAVVQPGRSLRLSCAASGFTFSSYGMHWVRQAPGKGLESVAVIWYDGSNKNYADSVKGRFTISRDNSKNTLFLQMNSLRAEDSAMYYCAKTYDSRAYYYLDYWGQGTLVTVSS
VL: ETTLTQSPSTLSTSVGDRVTITCRASQSISSWLAWYQQKPGKAPKLLIYRASSLETEVPSRFSGSGSGTDFTLTISRLQPDDFATYFCQQYNRYPYTFGQGTKLEIK
notes: full-length IgG
B8: ADI-49030 (antibody, V domains shown)
VH: QVQLVQSGGGLVQPGGSLRLSCAASGFTFSDHYMDWVRQAPGKGLEWVGRTRNKANSYTTEYAASVKGRFTISRDDSKNSLYLQMNSLKTEDTAVYYCAGVGITGTTGIDYWGQGTLVTVSS
VL: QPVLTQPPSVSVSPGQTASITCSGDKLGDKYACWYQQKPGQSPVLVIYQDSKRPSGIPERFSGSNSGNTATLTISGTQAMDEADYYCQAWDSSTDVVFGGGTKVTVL
notes: full-length IgG; also called Antibody Number 151
B9: ADI-42124 (antibody, V domains shown)
VH: EVQLLESGGGLVQPGGSLRLSCAASGFTFSSYAMSWVRQAPGKGLELVSAISSSGGSTYYADSVKGRFTISRDNSKNTLYLQMNSLRAEDTALYYCAKDLFYDFWTGITIDYWGQGTLVTVSS
VL: QPVLTQPRSVSGSPGQSVTISCTGTSSDVGGYNYVSWYQQHPGKAPKLMIYDVSKRPSGVPDRFSGSKSGNTASLTISGLQAEDEADYYCCSYAGSYTFVLFGGGTKLTVL
notes: full-length IgG
B10: ADI-42228 (antibody, V domains shown)
VH: EVQLLESGGGLVQPGRSLRLSCAASGFTFDDYAMHWVRQPPGKGLEWVSGISWNGGGIGYADSVKGRFTISRDNAKNSLYLQMNSLRADDTALYYCAKAENRIGYCSAGSCYLTYFDYWGQGTLVTVSS
VL: QPVLTQPASVSGSPGQSITISCTGTSSDVGGYNYVSWYQQHPGKAPKLLIYDVSNRPSGVSNRFSGSKSANSASLTISGLQAEDEADYYCNSYTSSSTLVFGGGTKLTVL
notes: full-length IgG; also called Antibody Number 19
B11: ADI-45123 (antibody, V domains shown)
VH: EVQLLESGGGLVQPGGSLRLSCAASGFIFSNYWMSWVRQAPGKGLEWVANIKPDGSEKYYVESVRGRFTISRDNAKNSLYLQMNSLRAEDTAVFYCARDGGTVSDGLDVWGQGTTVTVSS
VL: DIRVTQSPSSLSASVGDRVTISCRASESISIYLNWYQQKPGKAPNLLIYAASSLQRGVPSRFSGSGSGTDFTLTITSLQAEDFATYYCQQTFSIWTFGQGTKVEIK
notes: full-length IgG
B12: ADI-50201 (antibody, V domains shown)
VH: QVQLVESGGGLVKPGGSLRLSCAASGFIFSDYYMNWIRQAPGKGLDWVSTISGSGKSIYYADSVKGRFTISRDNAKNSLYLQMNSLSAEDTAVYYCARVSPLDDGYGYTYYGMDVWGQGTTVTVSS
VL: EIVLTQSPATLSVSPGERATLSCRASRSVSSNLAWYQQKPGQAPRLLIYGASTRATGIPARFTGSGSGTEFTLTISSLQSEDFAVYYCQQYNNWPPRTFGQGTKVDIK
notes: full-length IgG; also called Antibody Number 17
B13: ADI-50533 (antibody, V domains shown)
VH: QVQLQESGPGLVKPSGTLSLTCAVSGGSISSSNWWSWVRQPPGKGLEWIGEIYHSGSTNYNPSLKSRVTISVDKSKNQFSLKLSSVTAADTAVYYCARVVWYSSSSHLFDYWGQGTLVTVSS
VL: QPVLTQPPSVSAAPGQKVTISCSGSSSNIGNNYVSWYQQLPGTAPKLLIYDNNKRPSGIPDRFSGSKSGTSATLGITGLQTGDEADYYCGTWDSSLSAGKVFGGGTKLTVL
notes: full-length IgG; also called Antibody Number 147
B14: ADI-42198 (antibody, V domains shown)
VH: EVQLVESGPGLVKPSGTLSLTCAVSGGSISSNKWWSWVRQPPGKGLEWIGEIYHSGSTSYNPSLKSRVSISVDKSKNQFSLKLSSVTAADTAVYYCARVEWAYSSSWWLDYWGQGTLVTVSS
VL: QSVLTQPPSVSAAPGQKVTISCSGSSSNIGNNYVSWYQQLPGTAPKLLIYDNNKRPSGIPDRFSGSKSGTSATLGITGLQTGDEADYICGTWDTSLSAGGVFGGGTKLTVL
notes: full-length IgG; also called Antibody Number 21
B15: ADI-42210 (antibody, V domains shown)
VH: EVQLLESGPGLVQPSGTLSLTCTASGGSISSSNWWSWVRQPPGKGLEWIGDIYHTGSTSYNPSLKSRVTISVDKSKNQFSLKLSSVTAADTAVYYCARAELSAWYYFDHWGQGTLVTVSS
VL: QSVLTQPPSVSAAPGQKVTISCSGSSSNIGNNYVSWYQQLPGTAPKLLIYDNNKRPSGIPDRFSGSKSGTSATLGITGLQTGDEADYYCGTWDTSLSAGRVFGGGTKLTVL
notes: full-length IgG; also called Antibody Number 16
B16: ADI-48895 (antibody, V domains shown)
VH: EVQLLESGGGLVKPGGSLRLSCAASGFTFSDYYMSWIRQAPGKGLEWVSYITSSGNTKYYADSVKGRFTISRDNAKNSLYLQISSLRAEDTAVYYCARDWAELTTITNYFYPWGQGTTVTVSS
VL: DIQLTQSPSSVSASVGDRVTITCRASQGISSWLAWYQQKPGKAPKLLIHAASSLQSGVPSRFSGSGSGTDFTLTISSLQPEDFATYYCQQAKSFPPTFGQGTRLEIK
notes: full-length IgG; also called Antibody Number 18

These binders were tested against T1, recombinant YFV E protein (soluble E, sE; YFV Asibi strain) (Yellow fever virus, Asibi strain, UniProt Q6DV88 286-678) (assay: BLI monovalent (IgG on tip)).
T1 construct: also called YFV E antigen; YFV E monomer
T1 sequence (Q6DV88 286-678): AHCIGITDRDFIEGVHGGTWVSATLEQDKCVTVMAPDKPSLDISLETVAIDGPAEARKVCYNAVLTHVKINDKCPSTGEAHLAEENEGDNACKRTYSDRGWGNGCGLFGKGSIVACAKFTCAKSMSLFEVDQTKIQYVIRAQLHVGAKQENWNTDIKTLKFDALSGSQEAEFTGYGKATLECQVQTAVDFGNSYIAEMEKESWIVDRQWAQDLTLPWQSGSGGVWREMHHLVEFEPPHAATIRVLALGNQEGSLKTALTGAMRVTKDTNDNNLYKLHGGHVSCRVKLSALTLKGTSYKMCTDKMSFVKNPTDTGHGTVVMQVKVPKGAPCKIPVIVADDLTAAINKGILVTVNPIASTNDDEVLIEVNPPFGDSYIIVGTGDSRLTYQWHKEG
With B1 the Kd was > 100 nM. In the case of B2, the Kd is reported as > 100 nM. For B3, the Kd was 12.7 nM. Binder B4 has a Kd of 12.9 nM. With B5 the Kd was 13.1 nM. B6 was tested, and the Kd was > 100 nM. With B7 the Kd was 234 nM. B8 was tested, and the Kd was 125 nM. Binder B9 has a Kd of 5.88 nM. Binder B10 has a Kd of 8.64 nM. With B11 the Kd was 2.1 nM. B12 was tested, and the Kd was 13.1 nM. With B13 the Kd was > 100 nM. For B14, the Kd was 33.2 nM. In the case of B15, the Kd is reported as 18.7 nM. With B16 the Kd was 4.49 nM.

Source: patent US20240218054A1 (MABLOC, published 2024)
